{"source": "FireProtDB (doi:10.1016/j.neuropharm.2010.07.001)", "parents": {"B1": {"name": "Adenosine receptor A2a, P29274 (parent)", "chain": "MPIMGSSVYITVELAIAVLAILGNVLVCWAVWLNSNLQNVTNYFVVSLAAADIAVGVLAIPFAITISTGFCAACHGCLFIACFVLVLTQSSIFSLLAIAIDRYIAIRIPLRYNGLVTGTRAKGIIAICWVLSFAIGLTPMLGWNNCGQPKEGKNHSQGCGEGQVACLFEDVVPMNYMVYFNFFACVLVPLLLMLGVYLRIFLAARRQLKQMESQPLPGERARSTLQKEVHAAKSLAIIVGLFALCWLPLHIINCFTFFCPDCSHAPLWLMYLAIVLSHTNSVVNPFIYAYRIREFRQTFRKIIRSHVLRQQEPFKAAGTSARVLAAHGSDGEQVSLRLNGHPPGVWANGSAPHPERRPNGYALGLVSGGSAQESQGNTGLPDVELLSHELKGVCPEPPGLDDPLAQDGAGVS"}}, "note": "“And” between values parts separate entries of the source, which are not always exact repeats. Equal values may be shown once.", "data": [{"variants_of": "B1", "settings": "Homo sapiens; pH 7.5; Thermal; Tris-HCl 50 mM; NaCl 250 mM; structure 5NM2; whole UniProt chain shown", "values": [{"variant": "MPIMGSSVYITVELAIAVLAILGNVLVCWAVWLNSNLQNVTNYFVVSLAAADILVGVLAIPFAITISTGFCAACHGCLFIACFVLVLAQSSIFSLLAIAIDRYIAIRIPLRYNGLVTGTRAAGIIAICWVLSFAIGLTPMLGWNNCGQPKEGKNHSQGCGEGQVACLFEDVVPMNYMVYFNFFACVLVPLLLMLGVYLRIFLAARRQLKQMESQPLPGERARSTLQKEVHAAKSLAIIAGLFALCWLPLHIINCFTFFCPDCSHAPLWLMYLAIVLSHTNSVVNPFIYAYRIREFRQTFRKIIRSHVLRQQEPFKAAGTSARVLAAHGSDGEQVSLRLNGHPPGVWANGSAPHPERRPNGYALGLVSGGSAQESQGNTGLPDVELLSHELKGVCPEPPGLDDPLAQDGAGVS", "note": "[A54L T88A V239A K122A]", "change of melting temperature, mutant - wild type (higher = more stable)": "12 °C and 10 °C and 9 °C"}]}]}
